Source: US20170088603A1

Legend:
[1] = target: Human FcRn with human β2M on MDCK II clone 15 cells (human) (UniProt P55899); assay: cell-based or functional assay
[2] = target: Human FcRn with human β2M on MDCK II clone 15 cells (human) (UniProt P55899)

Chain of IgG4 Fc IgM tp L309 (P01861 other isoform, or with tags, fused parts or gaps limits assumed): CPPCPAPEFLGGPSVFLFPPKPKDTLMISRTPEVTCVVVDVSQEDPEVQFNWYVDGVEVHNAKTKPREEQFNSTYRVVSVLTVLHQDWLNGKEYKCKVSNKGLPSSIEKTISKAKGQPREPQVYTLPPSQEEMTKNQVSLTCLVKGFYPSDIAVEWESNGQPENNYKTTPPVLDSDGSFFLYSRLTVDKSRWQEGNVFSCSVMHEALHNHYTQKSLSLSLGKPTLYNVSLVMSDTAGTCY

Row | Substance | Blockade of IgG intracellular uptake EC50 [1] | Blockade of IgG recycling EC50 [1] | EC50, inhibition of FcRn mediated IgG recycling (cell lysates), percentage inhibition relative to the positive control; blocked ligand biotinylated human IgG [upper panel (cell lysates] [2] | Blockade of IgG recycling (% inhibition at 100 µg/ml) [1]
1 | IgG1 Fc IgM tp L309 (from UniProt P0DOX5 228-449) (Fc fusion) | 4.4 µg/mL | 0.33 µg/mL | 0.37 µg/mL | –
2 | IgG4 IgM tail-piece, V308P (Fc fusion) | 0.51 µg/mL | 0.42 µg/mL | – | –
3 | IgG1 IgM tail-piece, V308P (Fc fusion) | 0.34 µg/mL | 0.55 µg/mL | – | –
4 | IgG4 IgM tail-piece, T307A (Fc fusion) | 0.5 µg/mL | – | – | –
5 | IgG1 IgM tail-piece, V308F (Fc fusion) | 0.12 µg/mL | 0.073 µg/mL | – | –
6 | IgG4 Fc IgM tp L309 (from UniProt P01861 106-325) (Fc fusion) | 5.9 µg/mL | 1 µg/mL | – | –

Further lines, results first:

Row | Blockade of IgG intracellular uptake EC50 [1] | Blockade of IgG recycling EC50 [1] | EC50, inhibition of FcRn mediated IgG recycling (cell lysates), percentage inhibition relative to the positive control; blocked ligand biotinylated human IgG [upper panel (cell lysates] [2] | Blockade of IgG recycling (% inhibition at 100 µg/ml) [1] | Substance
7 | – | – | – | 45 | IgG1 IgM tail-piece, H310L (Fc fusion)
8 | 0.42 µg/mL | 0.56 µg/mL | – | – | IgG4 IgM tail-piece, V308F (Fc fusion)
9 | 0.54 µg/mL | 0.35 µg/mL | – | – | IgG1 IgM tail-piece, T307A (Fc fusion)
